The data set can be described thus: soluble on expression in E. coli; label from the status in PepcDB or PDB records.
On to “MSLTEKCVIKIGGSVLKDGSSLPRVMDIISHFRSPILVVSAFGGITDALYRFYEYDESRMDKLRDLLLMHLGILWKYNIEAHPEISIQDSSILDQDAYVSYGEKMSAFTLARFLTGNGIPAAPIYTDEAGLIVEEISKERTVDLEGSRAFFENIARVETSGKVPVVTGFFGIDRYGKTRILGRNSSDYSAVAVAAILGIREVILIKDVPGIYMNLEDRTSIVNRIDYETALRIVDRGSKVVHRAALRLAMKMGMNLLITSPENLESGTVIGDLFEGHHHHHH”, for which the “soluble on expression in E. coli” value is reported as “soluble”.

“MQIKTYKIKDICDIKRGRVISKLYIKNNPGEFPVYSSATVNNGEIGRIKDCDLKGEYVTWTTDGAQAGSVFYRNGQFNATNVCGILKVNNDEIYPKFLAYALRLKAPKFVNYACPIPKLMQGTLAEIELDFTSKKIQEKIATILDTFTELSAELSAELSAELSAELRERKKQYVFYSDYLLNPKNWK”: the “soluble on expression in E. coli” value is reported as “soluble”.

Take “MAHHHHHHMSFLPIRVCVLVCSYEGSDSELKEYEGEIVQTPQHYFTEEDSKEFVFTLEFVKKATAYRQIRQLVKSGAFDVFYNQCDGAIDEDKAGVEVVQALESFKVPFTGAISKYYELSKPEMKRMAHYCAVKTAPYAVLEAGDNVRELCAALHFPLIVKHISGYSSVGMDKSCKVYDMDALKERVARFIDQYQSALVEEFISGDEATVLVCADASQPGGIRVFPPVMVQFPEGEDFKHFHLKWETYEGMIWRLVSEDDPALPDIIHIARTAFLHMMGGVGYGRVDVRIDREKNTVVFLEINPNCGIMYPYGQEGSADWILRLTPEFKQKEFAKLQISEAIRIHKCKQPLFRCAYDPVREYYICATRDIPAGSIIFEGEGRLVRLCTKPYVKANWSEVEYNEFLHDAWPVGAEGHYYALWDLESSDWRAVNHSCDPNMGFCPNRSLNVHALRDIAKGEELTMDCRLFMDDTMPPFQCHCKTSICAGWIRGGVMRESHFFESYTERLIHREDKFITQLTRN”: the “soluble on expression in E. coli” value is “not soluble”.

As to “MVFNFLIVSDEVEDFRREIAIDSEATFLDLQNAILDSVGYSHSELTSFFLCDEDWHKGQEITLMEMDTASDEDSYVMENTRLEEFIEDEHQRLVFEFDLMTERYFFIEVMDIVPGKSLSEPKLLTSEGLPPQQSSLDDLMDPTAIPTKQARGLDLEEDFFGDSEYNEDEIDREGFEGFDEITSDLSDNY”, the “soluble on expression in E. coli” value was “not soluble”.

On to “MAAIDAALKAGEKILSIYEDPKSDFEIERKADNSPLTIADRKAHEAIVAILNETPFPVLSEEGKHMDYAVRRGWDTLWIVDPLDGTKEFIKRNGEFTVNIALVQNAVPVMGVIYVPVKKELYFAVEGTGAYKCSGIVGLEDEGVTLQQMIEKSERMPLADARDHFIAVASRSHLTPETETYIADLKKKHGNVELISSGSSIKICLVAEGKADVYPRFAPTMEWDTAAGHAIARAAGMEVYQAGKEEPLRYNKEDLLNPWFIVEAKRER”, for which the “soluble on expression in E. coli” value is reported as “soluble”.

Take “MSASSLLEQRPKGQGNKVQNGSVHQKDGLNDDDFEPYLSPQARPNNAYTAMSDSYLPSYYSPSIGFSYSLGEAAWSTGGDTAMPYLTSYGQLSNGEPHFLPDAMFGQPGALGSTPFLGQHGFNFFPSGIDFSAWGNNSSQGQSTQSSGYSSNYAYAPSSLGGAMIDGQSAFANETLNKAPGMNTIDQGMAALKLGSTEVASSVPKVVGSAVGSGSITSNIVASSSLPPATIAPPKPASWADIASKPAKQQPKLKTKNGIAGSSLPPPPIKHNMDIGTWDNKGPVAKAPSQALVQNIGQPTQGSPQPVGQQANNSPPVAQASVGQQTQPLPPPPPQPAQLSVQQQAAQPTRWVAPRNRGSGFGHNGVDGNGVGQSQAGSGSTPSEPHPVLEKLRSINNYNPKDFDWNLKHGRVFIIKSYSEDDIHRSIKYNIWCSTEHGNKRLDAAYRSMNGKGPVYLLFSVNGSGHFCGVAEMKSAVDYNTCAGVWSQDKWKGRFDVRWIFVKDVPNSQLRHIRLENNENKPVTNSRDTQEVPLEKAKQVLKIIASYKHTTSIFDDFSHYEKRQEEEESVKKERQGRGK”: the “soluble on expression in E. coli” value is listed as “soluble”.

Consider “GFILKRGWTVLESKYLDLLAQKYDCEEKVVTEIINLKAILNLPKGTEHFVSDLHGEYQAFQHVLRNGSGRVKEKIRDIFSGVIYDREIDELAALVYYPEDKLKLIKHDFDAKEALNEWYKETIHRMIKLVSYCSSKYTRSKLRKALPAQFAYITEELLYKTEQAGNKEQYYSEIIDQIIELGQADKLITGLAYSVQRLVVDHLHVVGDIYDRGPQPDRIMEELINYHSVDIQWGNHDVLWIGAYSGSKVCLANIIRICARYDNLDIIEDVYGINLRPLLNLAEKYYDDNPAFRPKADENRPEDEIKQITKIHQAIAMIQFKLESPIIKRRPNFNMEERLLLEKIDYDKNEITLNGKTYQLENTCFATINPEQPDQLLEEEAEVIDKLLFSVQHSEKLGRHMNFMMKKGSLYLKYNGNLLIHGCIPVDENGNMETMMIEDKPYAGRELLDVFERFLREAFAHPEETDDLATDMAWYLWTGEYSSLFGKRAMTTFERYFIKEKETHKEKKNPYYYLREDEATCRNILAEFGLNPDHGHIINGHTPVKEIEGEDPIKANGKMIVIDGGFSKAYQSTTGIAGYTLLYNSYGMQLVAHKHFNSKAEVLSTGTDVLTVKRLVDKELERKKVKETNVGEELLQEVAILESLREYRY”, for which the “soluble on expression in E. coli” value was “not soluble”.

“KHGPLHPIPNRPVLTRARASLPLVLYIDRFLGGVFSKRRIPKRTQFGPVEGPLVRGSELKDCYIHLKVSLDKGDRKERDLHEDLWFELSDETLCNWMMFVRPAQNHLEQNLVAYQYGHHVYYTTIKNVEPKQELKVWYAASYAEFVNQKIHD”: the “soluble on expression in E. coli” value was “soluble”.

With “MTYGIVIVSHSPEIASGLKKLIREVAKNISLTAIGGLENGEIGTSFDRVMNAIEENEADNLLTFFDLGSARMNLDLVSEMTDKELTIFNVPLIEGAYTASALLEAGATFEAIKEQLEKMLIEKRSHHHHHH”, the “soluble on expression in E. coli” value is recorded as “soluble”.

As to “MGSDKIHHHHHHMPLPQVTMQELPWKMKKSLSRSTLRSPNGFSEIGLKLEMVSQDALRRTIFPLGGLTKEFVKKIAAENRLHHVLQKKESMGMCFIGKRNFEHFLLQYLQPRPGHFISIEDNKVLGTHKGWFLYTLGQRANIGGLREPWYVVEKDSVKGDVFVAPRTDHPALYRDLLRTSRVHWIAEEPPAALVRDKMMECHFRFRHQMALVCCVLQGGRVPGQREDPAAGAVCLHAPEGPAQSWDGH”, the “soluble on expression in E. coli” value is “not soluble”.

For the sequence “MANVESLYKELTAEWSKRPPNTVKCGQLLDQLKVALVKMAFLPTDGNDAQSSKKQLILARSVLEVAVEHSVLSKDLLAFERYMAQLKCYYYDYAKIIGESESKYKLLGLNLLYLLSGNRVSDFHTELELLSVDVIQHNQFIRPILALEQYIMEGRYNKIFQAKSTVPVEVYSYFMDLLLETVRDEIGACIEKSYDKISAKDAAKRLNLRVPDEIKAFGAKRQWKLEASGDYSFTDRSVKPKELLPSEELAEQVLSYARDLEMIV”, the “soluble on expression in E. coli” value is on record as “not soluble”.

Consider “MSCVHYKFSSKLNYDTVTFDGLHISLCDLKKQIMGREKLKAADSDLQITNAQTKEEYTDDNALIPKNSSVIVRRIPIGGVKSTSKTYVISRTEPVMGTTKAVCKNTITLFLHNCFYLYNVSVT”, for which the “soluble on expression in E. coli” value is recorded as “not soluble”.

Values taken from the DeepSol protein solubility set.
